Experimental data reported in US20240352438A1, “MEANS AND METHODS FOR DETOXIFYING OCHRATOXIN A” (DSM Austria GmbH, priority 2021, published 2024).
Substitutions are numbered along the chain they refer to.

B1: 40 (protein)
chain: MYSLAIRNGIVFDGEKFIGKTNIYVDGDKIVKITNERLDAKEEVNAEGYFVMPGLIDAHLHLTGIRGGSLLMGYLLDDPRTRLLRAANWARELLMAGFTTVRDCGEPNSIILRNAINEGIIPGPRIIAAGSPITQTFGHAELSHSLPLEWSIQLGFGEICDGVDECIKAARKVLRSGADFIKIMATGGVLSERDRPEWPQLTPEEMSAIVREAEKVGTYVAAHAHGDKGARIAVEAGVRTIEHGSLITEETVKLMAEKGVSLTPTLSIIELIYKYGKQMGIDPWGLEKIGQVREGVINSIKLARKYGVMILAGTDLGFKTGLDIDMGKNWVEVKLLVELGGLSSEEALRAATGNASKMLRLNTGIIREGYLADIVLINGNPLENINDIARVSTVIKGGKVTVENGKLI
modifications: exemplary polypeptide
B2: 42 (protein)
chain: B1 chain with I269Q, F318V
modifications: exemplary polypeptide
B3: 44 (protein)
chain: B1 chain with I269Q, I272V
modifications: exemplary polypeptide
B4: 35 (protein)
chain: B1 chain with I65G, I269Q
modifications: exemplary polypeptide
B5: 45 (protein)
chain: B1 chain with I269Q, Y275F
modifications: exemplary polypeptide
B6: 38 (protein)
chain: B1 chain with E106S, I269Q
modifications: exemplary polypeptide
B7: 36 (protein)
chain: B1 chain with I65A, I269Q
modifications: exemplary polypeptide
B8: 46 (protein)
chain: B1 chain with I269Q, Y275H
modifications: exemplary polypeptide
B9: 37 (protein)
chain: B1 chain with E106G, I269Q
modifications: exemplary polypeptide
B10: 47 (protein)
chain: B1 chain with I65A, E106G, P132A, I268A, I272V, Y275V, F318V
modifications: exemplary polypeptide
B11: 43 (protein)
chain: B1 chain with P132A, I269Q
modifications: exemplary polypeptide
B12: 41 (protein)
chain: B1 chain with I269Q, Y275V
modifications: exemplary polypeptide
B13: 51 (protein)
chain: MTTRTRILTAFLSLLAANACAADAAPAAPHTVVLRAARMFDGASGKLVDHPQLTIVGNKIVRIAQGDKAEVPAGAEVVDLGDATLLPGFIDAHVHLSGQSSDNWYGDFFDNMMRFPAEQALYGAYYARITLEAGFTSVRDVGSTDWVALGLRNAIDAGKVPGPRMLVSNYGVGSTGGHADQDPIPPHKLPLAGPLQGVCNGPEECRAAVRYQIKYGANVIKFMPSGGVLSLSDPVDAPELSQDEMNAVIGESHAWGRKVAAHAHGDKAAKMAVAAGVDSIEHGSFIEDDTLRAMKAKNVYLVPTISAIAHVEEKIGTFPPVIAEKGRAAAAHLRQTFRHAVQIGVPIALGTDAGVGAHGSNAREFRYMVENGLTPAQALLAGTANAARLLGTFDRVGTLEAGKLADVVAVPGNPIADITVTERPLFVMKDGVVVRRDAVR
modifications: exemplary polypeptide
B14: 60 (protein)
chain: B13 chain with G171A, V311T
modifications: exemplary polypeptide
B15: 55 (protein)
chain: B13 chain with G171A, L229V
modifications: exemplary polypeptide
B16: 54 (protein)
chain: B13 chain with G171A, V228A
modifications: exemplary polypeptide
B17: 58 (protein)
chain: B13 chain with G171A, A307G
modifications: exemplary polypeptide
B18: 53 (protein)
chain: B13 chain with G171A, P183S
modifications: exemplary polypeptide
B19: 52 (protein)
chain: B13 chain with G171A, P183G
modifications: exemplary polypeptide
B20: 61 (protein)
chain: B13 chain with G171A, V355T
modifications: exemplary polypeptide
B21: 56 (protein)
chain: B13 chain with G171A, L229M
modifications: exemplary polypeptide
B22: 59 (protein)
chain: B13 chain with G171A, I308V
modifications: exemplary polypeptide
B23: 57 (protein)
chain: B13 chain with G171A, A307S
modifications: exemplary polypeptide

Assay: Thermostability assay: residual OTA detoxification activity after 10 min incubation at 45-99° C. (T50)
Assay type: physicochemical
Settings: 0.1 mg/mL protein in 20 mM Tris-HCl pH 7.5, residual OTA detoxification activity relative to 4° C. reference aliquot
How it was run: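 Purified enzyme at 0.1 mg/mL in 20 mM Tris-HCl pH 7.5 was heated 10 min at 45–99 °C, then held at 4 °C. Residual OTA detoxification activity was expressed relative to an aliquot kept at 4 °C throughout; T50 is the temperature range giving 50% activity loss.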

Molecule	T50 (temperature at which 50% of the initial activity was maintained)
B1	>99 °C
B2	>99 °C
B3	>99 °C
B4	99 °C
B5	>99 °C
B6	>99 °C
B7	99 °C
B8	>99 °C
B9	>99 °C
B10	>99 °C
B11	>99 °C
B12	99 °C
B13	68-70 °C
B14	66-68 °C
B15	64-66 °C
B16	<63.2 °C
B17	72 °C
B18	<63.2 °C
B19	<63.2 °C
B20	66-68 °C
B21	66-68 °C
B22	68-70 °C
B23	68-70 °C

Assay: OTA detoxification activity assay (specific activity, fluorescence reduction ex/em 390/450 nm)
Assay type: biochemical
Settings: pH 6.0; SEQ ID NO: 1 = 100%
How it was run: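 Recombinant enzyme preparation with 200 ng/mL OTA in 100 mM sodium phosphate, at pH 6.0 and pH 7.5, 37° C. Degradation followed as the fall in fluorescence at ex/em 390/450 nm. Specific activity taken from the initial linear slope; one unit degrades 1 μmol OTA per min at a starting OTA of […].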

Molecule	Specific OTA detoxification activities in % compared to the enzyme of SEQ ID NO: 1, pH 6.0 [%]
B13	46
B14	23
B15	27
B16	33
B17	6
B18	64
B19	16
B20	15
B21	32
B22	69
B23	15

Same assay, conditions: pH 6.0; SEQ ID NO: 2 = 100%

Molecule	Specific OTA detoxification activities in % compared to the enzyme of SEQ ID NO: 2, pH 6.0 [%]
B1	15.00
B2	131.00
B3	84.00
B4	56.00
B5	168.00
B6	11.00
B7	117.00
B8	82.00
B9	42.00
B10	85.00
B11	46.00
B12	272.00

Same assay, conditions: pH 7.5; SEQ ID NO: 1 = 100%

Molecule	Specific OTA detoxification activities in % compared to the enzyme of SEQ ID NO: 1, pH 7.5 [%]
B13	140
B14	61
B15	54
B16	40
B17	8
B18	100
B19	44
B20	34
B21	87
B22	333
B23	16

Same assay, conditions: pH 7.5; SEQ ID NO: 2 = 100%

Molecule	Specific OTA detoxification activities in % compared to the enzyme of SEQ ID NO: 2, pH 7.5 [%]
B1	61.00
B2	595.00
B3	84.00
B4	136.00
B5	138.00
B6	53.00
B7	309.00
B8	66.00
B9	187.00
B10	267.00
B11	19.00
B12	1551.00
